Read-outs that look alike come from different tables or passages of the source.
B1: Munc13–1(3–150) (domain or fragment, rat, UniProt Q62768 3-150, looked up)
chain: LLCVGVKKAKFDGAQEKFNTYVTLKVQNVKSTTIAVRGSQPSWEQDFMFEINRLDLGLTVEVWNKGLIWDTMVGTVWIPLRTIRQSNEEGPGEWLTLDSQAIMADSEICGTKDPTFHRILLDAHFELPLDIPEEEARYWAKKLEQLNA
notes: Munc13-1, rat, residues 3-150 (C2A domain and C-terminal extension); Forms a homodimer (AUC); 15N-labelled for NMR; source: bacteria, GST fusion, purified (glutathione-Sepharose, GST cleaved, size-exclusion or ion-exchange chromatography)
B2: Munc13–1(3–209) (domain or fragment, rat, UniProt Q62768 3-209, looked up)
chain: LLCVGVKKAKFDGAQEKFNTYVTLKVQNVKSTTIAVRGSQPSWEQDFMFEINRLDLGLTVEVWNKGLIWDTMVGTVWIPLRTIRQSNEEGPGEWLTLDSQAIMADSEICGTKDPTFHRILLDAHFELPLDIPEEEARYWAKKLEQLNAMRDQDEYSFQDQQDKPLPVPSSQCCNWNYFGWGEQNDDPDSAVDDRDSDYRSETSNSIP
notes: Munc13-1, rat, residues 3-209; Forms a homodimer (AUC); 15N-labelled for NMR; source: bacteria, GST fusion, purified (glutathione-Sepharose, GST cleaved, size-exclusion or ion-exchange chromatography)

Columns and labels:
[1] = target: RIM2α ZF domain (Rattus norvegicus) (UniProt Q9JIS1); conditions: cited from earlier work
[2] = target: RIM2α ZF domain (Rattus norvegicus) (UniProt Q9JIS1); conditions: cited from earlier work; remark: listed apart in the source
Munc13–1(3–150) = target: B1; test: SEC; gel filtration on Superdex S75 or S200; 30 mM Tris-HCl, 150 mM NaCl, 1 mM TCEP, pH 7.4; isolated proteins and their mixtures (Figures 1B, 4A); conditions: both partners purified
Munc13–1(3–209) = target: B2; test: as above; conditions: both partners purified
[3] = target: Munc13–1(3–150)(K32E) (rat) (UniProt Q62768); test: ITC; 200 μM Rim2α(82-142) injected into 10-20 μM Munc13-1(3-150)(K32E) in the cell; 20 °C; 30 mM Tris pH 7.4, 150 mM NaCl, 1 mM TCEP; single-site model; apparent Kd
[4] = target: the molecule itself; test: AUC; sedimentation equilibrium at 20,000-35,000 rpm, 4 °C; 30 mM Tris pH 8.0, 150 mM NaCl, 1 mM TCEP; loading 12.46-13.65 μM; monomer/dimer equilibrium model, dimer to monomers; the paper notes that constants below 50-100 nM are not quite accurate

Molecule	Kd [4] [nM]	stoichiometry N [4]	also measured
Munc13-1 3-209 (from UniProt Q62768)	–	–	Kd [1]: 70 nM
Munc13-1 3-150 (from UniProt Q62768)	–	–	Kd [2]: 350 nM
RIM2α(82–142) (domain or fragment, rat, UniProt Q9JIS1-1 82-142, looked up, also called RIM2α ZF domain; RIM2α zinc-finger domain; source: bacteria, GST fusion, purified (glutathione-Sepharose, GST cleaved, size-exclusion or ion-exchange chromatography)) QQEQKGDAPTCGICHKTKFADGCGHNCSYCQTKFCARCGGRVSLRSNKVMWVCNLCRKQQE	–	–	binding result (Munc13–1(3–150)): binds; binding result (Munc13–1(3–209)): binds; Kd [3]: 100 nM; stoichiometry N [3]: 1
Munc13–1(3–132) (domain or fragment, rat, UniProt Q62768 3-132, looked up, Forms a homodimer (AUC); source: bacteria, GST fusion, purified (glutathione-Sepharose, GST cleaved, size-exclusion or ion-exchange chromatography)) LLCVGVKKAKFDGAQEKFNTYVTLKVQNVKSTTIAVRGSQPSWEQDFMFEINRLDLGLTVEVWNKGLIWDTMVGTVWIPLRTIRQSNEEGPGEWLTLDSQAIMADSEICGTKDPTFHRILLDAHFELPLD	80	2	–
B1	5.2	2	–
Munc13–1(3–128) (domain or fragment, rat, UniProt Q62768 3-128, looked up, Cloned into a modified pGEX-KG vector with a TEV protease cleavage site; Forms a homodimer (AUC, crystal structure); 15N-labelled for NMR; also called Munc13–1 C2A domain; Munc13–1 C2A-domain homodimer; source: bacteria, GST fusion, purified (glutathione-Sepharose, GST cleaved, size-exclusion or ion-exchange chromatography)) LLCVGVKKAKFDGAQEKFNTYVTLKVQNVKSTTIAVRGSQPSWEQDFMFEINRLDLGLTVEVWNKGLIWDTMVGTVWIPLRTIRQSNEEGPGEWLTLDSQAIMADSEICGTKDPTFHRILLDAHFE	310	2	–
B2	1.9	2	–
